# Source: the nanobody polyreactivity screen of Harvey et al. (2022)
# Assay: yeast display, Sf9 membrane polyspecificity reagent, FACS + sequencing; frameworks hold sequencing errors
# How it was run: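 Nanobodies from a synthetic yeast display library (Saccharomyces cerevisiae BJ5465), induced 36–48 hours with galactose, were stained 1 hour at 4 °C with 10% biotinylated, detergent-solubilized Sf9 membrane reagent, enriched on streptavidin microbeads, then FACS-sorted. Anti-HA (expression) and streptavidin (reagent binding) fluorescence set low and high (top ~1%) gates. Polyreactivity labels come from the gate of origin. Genes were colony-PCR amplified, MiSeq 2 × 250 sequenced and filtered by CDR length.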
row,Sequence,polyreactivity (PSR sort gate)
1,QVQLVESGGGLVQAGGSLRLSCAASGITFVGNAMGGYRQATGKERELVAVIRGNGGSTYYADSVKGRFTISRDNAKNTVYLQMNSLKPEDTAVYYCAAAAYYADFDYLGQGTQVTVSS,low polyreactivity
2,QVQLVESGGGLVQAGGSLRLSCAASGFIFIRNAMGWYRQAPGKEWELVAAISSGGRTYYADSVKGRFTISRDNAKNTVYLQMNSLKPEDTAVYYCAARVITHYGRYYYWGQGTQVTVSS,high polyreactivity
3,QVQLVESGGGLVQAGGSLRLSCAASGSIFEYNAMGWYRQAPGKERELVAAITRGGNTYYADSVKGRFTISRDNAKNTVYLQMNSLKPEDTAVYYCAAVQWYGYPYYSWGQGTQVIVSS,low polyreactivity
4,QVQLVESGGGLVQAGGSLRLSCAPSGRIFHYNAMGWYRQAPGKERELVAAIDYGGSSTYYADSVKGRFTISRDNAKNTVYLEMNSLKPEDTAVYYCWGQATQVTVSS,low polyreactivity
5,QVQLVESGGGLVQAGGSLRLSCAASGFIFKRSAMGWYRQAPGKERELVAAITLSGGDTYYADSVKGRFTISRDNAKNNVYLQMNSLKPEDTAVYYCNAPYIGENYYWGQGTQVTVSS,high polyreactivity
6,QVQLVESGGGLVQAGGSLRLSCAASGYTFYANAMGWYRQAPGKEREFVASSTWSGGSTYYADSVKGRFTISRDNAKNTVYFQMNSLKPEDTAVYYCAADSWFKYDYWGQGTQVTVSS,low polyreactivity
7,QVQLVESGGGLVQAGGSLRLSCAASGRIFKLYAMGWYRQAPGKESELVAAITRRGGSTSYADSVKGRFTISRVNAKNTVYLQMNSLKPEDTSVYYCAASLSPWFTSYYLPYDLGYWGQGTQVTVSS,high polyreactivity
8,QVQLVESGGGLVQAGGSLRLSCAASGSIFLYNALGWYRQAPGKERELVAAIYKSGGSTYYADSVKGRFTISRDNEKNSVYLQMNSLKPEDTAVYYCAAGYGSRIRYGSEYDYWGQGTQVTVSS,low polyreactivity
9,QVQLVESGGGLVQAGGSLRLSCAASGFIFPEYAMGWYRQAPGKERELVAAINWSGGNTYYADSVKGRFTISRDNAKNTVYLQMNSLKPEDTAVYYCNVDEWVTDDDYWGQGTEVTVSS,low polyreactivity
10,QVQLVESGGGLVQAGGSLRLSCAASGSTFSGYVMGWYRQAPGKERELVAAISWGGSRTYYADSVKGRFTISRDNAKNTVYLQMNSLKPEDTAVYYCNAYTSYGTFFYWAWPYYYWGQGTQVTVSS,high polyreactivity
11,QVQLVESVGGLVQAGCSLRLSCAASGSTFEVYAMGWYRQAPGKESELVATITWSGGSTYYADSVKGRFTISRDNAKTTVYLQMNSLKPEDTAVYYCNAVIRYYFWGKYYLYYYWGQGTQVTVSS,high polyreactivity
12,QVQLVESGGGLVQAGGSLRLSCAASGRTFRTNAMGWYRQAPGKERELVAAIRASTGSTYYADSVKGRFTISRDNAKNTVYLQMNSLKPEDTAVYYCAATTQGVRYGYWGQGTQVTVSA,high polyreactivity
13,QVQLVESGGGLVQAGGSLRLSCAASGFIFGGYARGWYRQAPGKEREFVAAIRQRGGSTYYADSVKGRFTISRDNAKNTVYLQMNSLKPEDTAVYYCAAEPNTQWFDYWGQGTQVTVSS,high polyreactivity
14,QVQLVESGGGLVQAGGSLRLSCAASGSIFPYYAMGWYRQAPGKERELVAGISRRGGTTYYADSVKGRFTISRDNAKNTVYLQMNSLKPEDTAVYYCAARYGPYVDRYGYWGQGTQVTVSS,high polyreactivity
15,QVQLVESGGGLVQAGGSLRLSCAASGFIIKYYAMGWYRQAPGKERELVAAIDGSSASTYYADSVKGRFTISRDNAKNTVYLQMNSLKPEDTPVYYCAVARLRRGGVQYGYWGQGTQVTVSS,high polyreactivity
16,QVQLVESGGGLVQAGGSLRLSCAASGRIFYRNAMGWYRQAPGKERELVAAISRSGGTTYYADSVKGRFTISRDNAKNTVYLQMNSLKPEDTAVYYCAALVPYSYPGYYYWGQGTQVTVSS,high polyreactivity
17,QVQLVESGGGLVQAGGSLRLSCAASGSTLVGNAMGWYRQAPRKERELVATISKRSGSTYYADSVKGRFTISRDNAKNTVYLQMNSLKPEDSAVYYCNADDVRRRAYRIGSYWGYDYWGQGTQVTVSS,low polyreactivity
18,QVQLVESGGGLVQAGGSLRLSCAASGFTFAGYAMGWYRQAPGKERELVAGIRSSGARTYYADSVKGRFTISRDNAKNTVYLQMNSLKPEDTAVYYCAKTDGFYRGYGYWGQGTQVTVSS,low polyreactivity
19,QVQLVESGGGLVQAGGSLRLSCAASGFTLARNTMGWYRQAPGKQRELVAAISGGGSTNYADSVKGRFTISRDNAKNTVYLLMYSLKPEHTAVYYCNADSNSDNNDYDYWGQGSQVTVSS,low polyreactivity
20,QVQLVESGGGLVQAGGSLRLSCAASGSIFVHYAMGWYRQAPGKERELVAAITSSGGRTYYADSVKGRFTISRDNAKNTVYLQMNSLKPEDTAVYYCNAAKYLFRHGFLSAGDMYYWGQGTQVTVSS,high polyreactivity
21,QVQLVESAGGLVQAGGSLRLSCAASARTFSAYSMGWYRQAPGKERELVAAISRRGRSTYYADSVKGRFTISRDNAKNTVYLQMTSLKPEDTAVYYCAADVYKQYGYYYWGLGTQVTVSS,high polyreactivity
22,QFQLVESGGGLVQAGGSLRLSCAASGSICVLYPMGWYRQAPGKERELVAAITSGASTNYADSVKGRFTISRDNAKNTVYLQMNSQKPEDTAVYYCNTGSRLDRVDSWGQGTQLTVSS,low polyreactivity

row,Sequence,polyreactivity (PSR sort gate)
1,QVQLVESGGGLVQAGGSLRLSCAASGSTIFLYDMGWYRQAPGKESELVAAITISGGSTYYADSVKGRFTISRDNAKNTVDLQMNSLKPEDTAVYYCAADRQWISLFGYPDGYDYWGQGTQVTVSS,high polyreactivity
2,QVQLVESGGGLVQAGGSLRLSCAASGIIFFLYAMGWNRQAPGKERELVAAISSGGSTYYADSVKGRFTISRDNAKYTVYLQMNSLKPEDTAVYYFIARYWPFRYYYWGQGTQVTVSS,high polyreactivity
3,QVQLVESGGGLVQAGGSLRLSCAASGRTFYSNAMGWYRQAPGKERELVAAISSSGGRTFYADSVKGRFTISRDNAKNTVYLQMNSLKPEDTAVYYCAAVPGYPRDSLYNYWGQGTQVTVSS,high polyreactivity
4,QVQLVESGGGLVQAGGSLRLSCAASGYIFYNAMGWYRQAPGKERELVASISRRSGSTYYADSVKGRFTISRDNAKNTVYLQMNSLKPEDTAVYYCAADRPPWETYGYDYWGQGTQVTVSS,low polyreactivity
5,QVQLVESGGGLVQAGGSLRLSCAASGSIFFPYAMGWYRQAPGKEREFVAAITGSGTSTYYADSVKGRFTISRDNAKNTVYLQMNSLKPEDTAVYYCNAKRDRYFYTVKYDYWGQGTQVTVSS,low polyreactivity
6,QVQLVESGGGLVQAGGSLRLSCAASGRIFRWYAMGWYRPAPGKERELVAAISRSGTSTYYADSVKGRFTISRDNAKNTVYLQMNSLKPEDTAVYDCAADRTGRIVLSPTDEMDYWGQGTQVTVSS,low polyreactivity
7,QVQLVESGGGLVQAGGSLRLSCAASGSTFYLNDMGWYRQAPGKERELVAAIDWSGGSTYYAVSVKGRFTISRDNAKNTVYLQMNSLKPEDTAVYYCAARLVYEWRRLDYFIAWDYWGQGTQVTVSS,low polyreactivity
8,QVQLVESGGGLVQAGGRLRLSCAASGITFKRYAMGWYRQAPRKERELVAAISDIGGRTYYADSVKGRFSISRDNAKNTVYLQMYSLKPEDTAVYYCAADYYSPVDWYYYWGQGTQVTVSS,high polyreactivity
9,QVQLVESGGGLVQAGASLRLSCASSGFTFGYYTMGWYRQAPGKERELVAAISWSGDSTYYADSVKGRLTISRDNAKNTVYLQMNSLKPEDTAVYYCAAEVYGSWPDYDYSGQGTQVTVSS,low polyreactivity
10,QVQLVESGGGLVQAGGSLRLRCAASRRTLGVYALGWYRQAPGKERELVATITAGGSITSYADSVKGRFTISRDNAKNTVYLQMNTLKPEDTAVYYCAAEQGCSVLYDSWGQGTQVTVSS,low polyreactivity
11,QVQLVESGGGLVQAGGSLRLSCAASGITFDKYAMGWYRQAPGKERELVAAISWGGGRTYYADSVKGRFTISRDNAKNTVYLQMNSLKPEDTAVYYCATSHGLYTRWYDYWGQGTQVTVSS,high polyreactivity
12,QVQLVESGGGLVQAGGSLRLSCAASGSIFSLYTMGWYRQAPGKERELVATIRSVGSTNYADSVKGRFTISRDNAKNTVYLQMNSLKPEDTAVYYCAAGWYYGVYYIYDYWGQGTQVNVSS,high polyreactivity
13,QVQLVESGGGLVQAGGSLRLSCAASGFTFQRYAMGWYRQAPGKERELVAGITRRSGSTFYADSVKGRFTISRDNAKNNVYLLMNSLKPEDTAVYYCAATVPGLHWIYDFWGQGTQVTVSS,high polyreactivity
14,QVQLVESGGGLVQAGGSLRLSCAASGIIFYTYAMGWYRQAPGKERELVAAISRSGVRTYYADSVKGRFTISRDNAKNTVYLQMNSLKPEDTAVYYCAVDKGITQGLYDYWGQGTQVTVSS,high polyreactivity
15,QVQLVESGGGLVQAGGSLRLSCAASGSIFPSYAMGWYRQAPGKDRELVATLGRGGTTNYADSVKGRFTLSRDNAKNTVYIQMNSLKPEDTAVYYCNAERIWRYKDGYDYWGQGTQVTVSS,high polyreactivity
16,QVQLVESGGGLVQAGGSLRLSCAASGFIFPYYAMGWYRQAPGKERELVATITSSGGSTYYADSVKGRFTISRDNAKNTVYLQMNSLKPEDTAVYYCAARRRYKYYGSRYDYWGQGTQVTVSS,high polyreactivity
17,QVQLVESGGGLVQAGGSLRLSCDASGGTITNYAMGWYRQAPGKERELVAAITDSGATTYYADSVKGRFTISLVTAKNPVSLQMNSLKPEDTAVYDCNAELDLYTYFDYWGQGTQVTVSS,low polyreactivity
18,QVQLVEAGGGLVQAGGSLRLSCAASGITFGDNAMGCYRQAPGKERELVAAITLSDVDTYADSVKGRFTISRDNAKNTVYLQMNSMKPEDTAVYYCAADYDFFSLYLYDYCGQGTQVTVSS,low polyreactivity
19,QVQLVESGGGLVQAGGSLRLSCAASGLIFSLNAMGWYRHATGKERELVAAISSDDSTYYADSVKGRFTISRDNAKNNVYLQMNSLTPEDTAVYYCAAVQLVPGYVDSNDYYWGQGTQVTVSS,low polyreactivity
20,QVQLVESGGGLVQAGGSLRLSCADSGLIFGYYAMGGYRQAPGKERELVAAITSSGTSTYYADSVKGRFTISRDNAKNTVYLQMNSLKPEDTAVYYCAAQYIGKKRFNYWGQGTQVTVSS,high polyreactivity
21,QVQRVESGGGLVQAGGSLRLSCAASGLIFGGYAMGWYRQAPGKERELVAAITSGGSTKYADSVKGRFTISRDNAKNTVYLQMNSLKPEDTAVYYCAASGWRNWWSARNYYWGQGTQVTVSS,low polyreactivity
